Measured values published in the DeepSol protein solubility set.

test: soluble on expression in E. coli; label from the status in PepcDB or PDB records

Row | Sequence | soluble on expression in E. coli
1 | MGGLTLFAAQGCKAPKQVAEQAEHPNIIYVFPDQYRNQAMGFWNQEGFRDKVNFRGDPVHTPNIDTFARESMVLTSAQSNCPLSSPHRGMLLTGMYPNRSGVPLNCNSTRPISSLRDDAECIGDVFSKAGYDCAYFGKLHADFPTPNDPENPGQYVETQRPVWDAYTPKEQRHGFNYWYSYGTFDEHKNPHYWDTDGKRHDPKEWSPLHESGKVVSYLKNEGNVRDTKKPFFIMVGMNPPHSPYRSLNDCEEQDFNLYKDQPLDSLLIRPNVDLNMKKAESVRYYFASVTGVDRAFGQILEALKQLGLDKNTVVIFASDHGETMCSQRTDDPKNSPYSESMNIPFLVRFPGKIQPRVDDLLLSAPDIMPTVLGLCGLGDSIPSEVQGRNFAPLFFDEKAEIVRPAGALYIQNLDGEKDKDGLVQSYFPSSRGIKTARYTLALYIDRKTKQLKKSLLFDDVNDPYQLNNLPLDENKEVVEQLYREMGTMLKEIDDPWYTEKILSDRIPYLEHHHHHH | not soluble
2 | MGSDKIHHHHHHMQATRESRLIFNINLIYGRLQRNCYGLVALLLCFTSTSAAALDSPVFYKIEYQQQQAYLLGSIHVGRQDFYPLAQHIESAFKQSDALVVEADISQGDTGALLQRYGGLPAEIAADVNATRQEYCQSHQTLCQALAPYAPWLQSAQISMGRFGQLGYSAEQGVDAYFMANRSGKNVVELESIQFQFELISSFSTATQLQMLDDSINASDAEMLDLIYAWRQGDGNALANIMESQAGDADELLEKLLWQRNHTMAQKIIQLLQSKTHKQLFIVVGAGHIVGQQAIPDLLKQQGATITRCSFLQC | not soluble
3 | MGSSHHHHHHGGTGENLYFQGGSGSSSSSSLPAAASLPATHATPPGALSSSVVSSSAPMCTHLPLPPPPPQPQEQQANKRSLRNDTHAGQMLREQQQMMEQLMSTGLVQAADLLEFGFSAAELRAAGLHLPPPHHRAGEQTKGGLEAAQAERMADAHGEDSRRRGVPRKRAWCDDAAQARPQKNERVAPSPVVSGAAATTLSAAETTREPQTVAKSVATPALLSEETRARSLHAAKLVEQTQSLRRHRGDQDCARWLCYDDTDDEEVSSTASTGTSSGEATAALASMARAAETLPKARCNTALAFSGLDVAVVREIAQRLQDESGHDASVESRRTREYVESRENGNTPYM | not soluble
4 | MGSDKIHHHHHHMETLFRSFRTQLEHTSTEVVRFLHDQIAWDSRLVAILGARGVGKTTLLLQHIKLYDREDESLYVTADDFYFTKYRLFDMAYQFYNLGGKKLYIDEIHKYKDWSREVKNIYDQIPGLQVIYTGSSILDLEKGGADLSRRKVEYRLPGLSFREYLNISQGWQLPSYSLEEILAGKVEFPYKEARPLKLFNDYLSTGYYPFFQDTEYLLRLRSVINQMVESDIPIFADMTVASAVKLKKLLYVLAQSVPFKPNYTKLARDLDISRNVLPDYMSYLEKAGLVNLLREKAQGLKLLEKVEKIYLNNTNLAYALSEQVPDIGSVRETVFLSWMRVVCFVTSSAISDFEIDGRTFEIGGKNKTRQQIKQAADGYVVKDDIEYAFRNMIPLWMFGFIY | not soluble
5 | MKCLVTGGNVKVLGKAVHSLSRIGDELYLEPLEDGLSLRTVNSSRSAYACFLFAPLFFQQYQAATPGQDLLRCKILMKSFLSVFRSLAMLEKTVEKCCISLNGRSSRLVVQLHCKFGVRKTHNLSFQDCESLQAVFDPASCPHMLRAPARVLGEAVLPFSPALAEVTLGIGRGRRVILRSYHEEEADSTAKAMVTEMCLGEEDFQQLQAQEGVAITFCLKEFRGLLSFAESANLNLSIHFDAPGRPAIFTIKDSLLDGHFVLATLSDTDSHSQDLGSPERHQPVPQLQAHSTPHPDDFANDDIDSYMIAMETTIGNEGSRVLPSISLSPGPQPPKSPGPHSEEEDEAEPSTVPGTPPPKKFRSLFFGSILAPVRSPQGPSPVLAEDSEGEGLEHHHHHH | not soluble
6 | MGSDKIHHHHHHMNIVSQLSPVTLSPELIARFTAIVGDKHALTDPLELEAYITEERNLYRGHSPLVLRPGSTEEVVAICKLANEARVALVPQGGNTGLVGGQTPHNGEVVISLKRMDKIREIDTSSNTITVEAGAILQRVQEKAAEVDRLFPLSLGAQGSCTIGGNLSTNAGGTAALAYGLARDMALGVEVVLADGRVMNLLSKLKKDNTGYDLRDLFIGAEGTLGIITAATLKLFPKPRAVETAFVGLQSPDDALKLLGIAQGEAAGNLTSFELIAETPLDFSVRHANNRDPLEARYPWYVLIELSSPRDDARAALESILERGFEDGIVVDAAIANSVQQQQAFWKLREEISPAQKPEGGSIKHDISVPVAAVPQFIEQANAAVVALIPGARPVPFGHLGDGNIHYNVSQPVGADKAEFLARWHDVSQVVFEVVLRLGGSISAEHGIGVMKRDELAEVKDKTAIELMRSIKALLDPHGIMNPGKVV | not soluble
7 | MSSWAKVIYGASTELDAKVVELNVGGQFYTTTMGTLMKHPGSKFSEILSRSARHYKDAQGRFFIDRPGTYFGLLLDYLRTGQVPTEYVPEVYQEAKFYQIHLLVKILEDMPQIFGEQVARTQFLMGVPNYRENLEVLLHLARAEAVAMRSSKVVVCVVRTEEEDAKCVKPLHILEAKKTPVVKFGPWKAGPMTEDFVCCLEKDIRAKGYKVTSQRYYLSRDPYTCFWIFVFTWW | not soluble
8 | MMTYDRNRNAITTGSRVMISGTGHTGIIKAIESEGLDAGQIRRGKTVIVEGCEGKFAPVELIRLGMN | not soluble
9 | MSLKEAIVERIVNKLNENQKEKIGVELPSGKRIPEFPVSHLIRFKTWKSLDYVLKDPEMGFGEGYMNGDIEVEGDLEEVIKRGMTLFKDTRKFEKLFGILRHVPLFRTIRDERNVKHHYDLGNDFYRLWLDKSMTYSCAFFEDPSMSIDEAQSLKRRIIYEKLQLKEGDTLLDIGCGWGSIILESAELYNVKSVGITLSDNQYEYVKEEIKKRGLQDKVEVYKLHYVDLPKLGRKFNKVVSVGMFEHVGKENYETFFNTVYKVMEEGGLFLLHTIGKLHPDTQSRWIRKYIFPGGYLPSISEIVESFRDMDFTLIDFDNWRMHYYWTLKKWKERFYENLDKIRNMFDDRFIRMWELYLTASAVSFLIGSNYVFQILLSKGVKDDYPVIKREFSGVLFKEGHHHHHH | not soluble
10 | MKVELTAIEARVIGCLIEKEVTTPDQYPLSLNALTNASNQKSNREPVMALSESDVLDAVDALIERRLVSDESAFNSRVSKYQHRFCNTEFGDLKLSEQEKGIICCMLLRGAQTPGEIRTRTNRLATFHDVKEVEAVLEHLASEEKGPLVVKLPREAGKRESRYMHLFCGEVDVSAMAAAVPATSSSSVRIAQLEQEVAELREELDALKAQVESLLS | not soluble
11 | MSDQLEASIKNILEQKTLKWIFVGGKGGVGKTTCSCSLAAQLSKVRERVLLISTDPAHNISDAFSQKFTKTPTLVEGFKNLFAMEIDSNPNGEGVEMGNIEEMLQNAAQNEGGSGGFSMGKDFLQSFAGGLPGIDEAMSFGEMIKLIDSLDFDVVVFDTAPTGHTLRLLQFPTLLEKVFTKILSLQGMFGPMMNQFGGMFGMGGGSMNEMIEKMTTTLESVKKMNAQFKDPNCTTFVCVCIAEFLSLYETERLIQELSKQGIDTHNIIVNQLLFPDTDANGTVSCRKCASRQAIQSKYLTDIDELYEDFHVVKLPLLEAEVRGGPAILQFSERMVDPEANKN | not soluble
12 | SAEHVLTMLNEHEVKFVDLRFTDTKGKEQHVTIPAHQVNAEFFEEGKMFDGSSIGGWKGINESDMVLMPDASTAVIDPFFADSTLIIRCDILEPGTLQGYDRDPRSIAKRAEDYLRATGIADTVLFGPEPEFFLFDDIRFGASISGSHVAIDDIEGAWNSSTKYEGGNKGHRPGVKGGYFPVPPVDSAQDIRSEMCLVMEQMGLVVEAHHHEVATAGQNEVATRFNTMTKKADEIQIYKYVVHNVAHRFGKTATFMPKPMFGDNGSGMHCHMSLAKNGTNLFSGDKYAGLSEQALYYIGGVIKHAKAINALANPTTNSYKRLVPGYEAPVMLAYSARNRSASIRIPVVASPKARRIEVRFPDPAANPYLCFAALLMAGLDGIKNKIHPGEPMDKNLYDLPPEEAKEIPQVAGSLEEALNALDLDREFLKAGGVFTDEAIDAYIALRREEDDRVRMTPHPVEFELYYSV | soluble
13 | GMTGAVETESMKTVRIREKIKKFLGDRPRNTAEILEHINSTMRHGTTSQQLGNVLSKDKDIVKVGYIKRSGILSGGYDICEWATRNWVAEHCPEWTEGQPIILNEEGDFTLGPLPE | soluble
14 | MVGQIAKEMGLRAYIVGGVVRDILLGKEVWDVDFVVEGNAIELAKELARRHGVNVHPFPEFGTAHLKIGKLKLEFATARRETYPRPGAYPKVEPASLKEDLIRRDFTINAMAISVNLEDYGTLIDYFGGLRDLKDKVIRVLHPVSFIEDPVRILRALRFAGRLNFKLSRSTEKLLKQAVNLGLLKEAPRGRLINEIKLALREDRFLEILELYRKYRVLEEIIEGFQWNEKVLQKLYALRKVVDWHALEFSEERIDYGWLYLLILISNLDYERGKHFLEEMSAPSWVRETYKFMKFKLGSLKEELKKAKENYEVYRLLKPLHTSVLLLLMLEEELKEKIKLYLEKLRKVKLPKEKIEELKKQGLKGKELGERIEELKREIMNKIKLAAALE | soluble
15 | MLMSLSRRELIKKEIFDIEEYVPGRSIEEIASTYGLKPESIIKLGSNENPLGPSPKAVKALIEAAPGANIYPSADAHELREALSKYTGFPVSNIVASGPGMDGLLDGLCRIIIEKGDEVIVPIPTFSYYELPARACGAEPVFIRRNQDFSLNPEKILEAVSPRTKIIFLCSPNNPSGNLLPEADLRKIIENTDALVFVDEAYVEFADRNLAALVNEYDNVAVGRTFSKVFGLAGLRLGYGIMPEWLTKEYLRAATPFSVSLPALRAGLAALSDTEYLNKSINLAREGREYLKEKIPFKVYPSQANFVLVDVSPLKAKKVTESLLKKGIIVRPCDSFREAGDSFIRVTVGTPEQNEKVVRAFEISKSEV | not soluble
16 | MYTLSAGIWEKFFKKKDYYVVIVGLDNAGKTTFLEQTKSHFVKDYGVLNPSKITATVGLNTGNVELNNTCLHFWDLGGQESLRELWATYYDDANAMIFVVDATRSDLFPIVASQFKEVMANEIVQNIPVLVAVNKSEMEGAAAAAEVRMLLEDDNHRSDLAVLPVSALEGTNIERCVHWIVRSLASQPLYL | not soluble
17 | MAAPGPALCLFDVDGTLTAPRQKITKEMDDFLQKLRQKIKIGVVGGSDFEKVQEQLGNDVVEKYDYVFPENGLVAYKDGKLLCRQNIQSHLGEALIQDLINYCLSYIAKIKLPKKRGTFIEFRNGMLNVSPIGRSCSQEERIEFYELDKKENIRQKFVADLRKEFAGKGLTFSIGGQISFDVFPDGWDKRYCLRHVENDGYKTIYFFGDKTMPGGNDHEIFTDPRTMGYSVTAPEDTRRICELLFS | soluble
18 | MFGLVDAVSFYARAEKVFDPSIRHKPVVVLTNNDGCICAVCPIARQLGVPKFVPYFKVKSFLAKHGVVVRSSNYELYADLSERMMNVIARYSDNHYVYSIDESFLHFKNFSCVDNWHEYGHVIRKAVWRETRLPVGVGFGATLTLAKAANHASKKLSGFDGVAVIDDKASRKEILSRMSLTEVWGIGSKLGKRLSILGLKNGWDLANQSPKAMRGQFGVVVERTVNELNGMPCLQWDEIGQDKQEIFSTRSFGQRVTDGHALKAALSSHASIVGAKVRRQGSLIKRLVIFASSSPHDDSYYKKSVIYEFPIATDNILKLVGAISYVFDNIYRQGVSFYRCGVGGVELENSQFQQQDMFSLSVNNPPLMKCYDQINHRYGRGAVEVAIAEKNEKWAMRRNFLSPRSTSNWSEIPKINCLEHHHHHH | not soluble
